The target of experiment [1] is T1, human chemokine receptor CCR7 (human, UniProt P32248 25-378).
T1 construct: On CHO, BHK, R1610 and Chem-1 transfectants and, natively, on human PBMC and the leukemia lines JVM-13 and CLL-AAT; also called human CCR7; hCCR7
T1 sequence: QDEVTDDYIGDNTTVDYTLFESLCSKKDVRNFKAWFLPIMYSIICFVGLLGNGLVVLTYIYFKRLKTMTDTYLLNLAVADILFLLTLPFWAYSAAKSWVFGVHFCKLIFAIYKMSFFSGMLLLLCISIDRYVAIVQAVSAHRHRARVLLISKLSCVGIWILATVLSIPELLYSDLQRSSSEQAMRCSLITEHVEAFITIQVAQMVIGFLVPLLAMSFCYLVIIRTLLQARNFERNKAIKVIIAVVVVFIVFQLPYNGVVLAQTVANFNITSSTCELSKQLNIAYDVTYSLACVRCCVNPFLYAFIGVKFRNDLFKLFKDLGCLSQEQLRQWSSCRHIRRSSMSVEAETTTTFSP
The experiment can be described thus: flow cytometry titration on CCR7 over-expressing cells (direct binding, printed as IC50). For orientation: A flow cytometer gives signals particle by particle.

Experiment [2] deals with T1, human chemokine receptor CCR7. The experiment is described as follows: cell-based or functional assay.
The target is the same in experiment [3]. The experiment can be described thus: flow cytometry titration, CHO-human CCR7 cells, anti-human Fc-PE. As to the method: The affinity of IgG1 antibodies to human CCR7 was evaluated by measuring mean fluorescence value (MFI) of cells expressing CCR7 in the presence of varying concentration of antibody in question, upon staining of bound to the cells antibodies with a commercial anti-human antibody-PE conjugate. The data of such experiments are depicted in FIGS. 9, 10, and 11. In these experiments binding of some antibodies to parental cells or cells expressing mouse CCR7 was also quantitatively characterized by obtaining EC₅₀ value (a concentration of IgG1 at which half-maximum MFI is achieved) for each curve using the SoftMaxPro5 program.

Experiment [4] has the same target. The experiment is described as follows: flow cytometry titration, CHO cells expressing human CCR7.

The record followed here is patent publication US20150344580A1 (MSM PROTEIN TECHNOLOGIES, published 2015).

B1: MSM R735 in IgG4 format (antibody)
heavy: EVQLLESGGGLVQPGGSLRLSCAASGFTFSNYNMHWVRQAPGKGLEWVSGIGPRRGRTYYADSVKGRFTISRDNSKNTLYLQMNSLRAEDTAVYYCARSYAYQYRGLDYWGQGTLVTVSSASTKGPSVFPLAPCSRSTSESTAALGCLVKDYFPEPVTVSWNSGALTSGVHTFPAVLQSSGLYSLSSVVTVPSSSLGTKTYTCNVDHKPSNTKVDKRVESKYGPPCPSCPAPEFLGGPSVFLFPPKPKDTLMISRTPEVTCVVVDVSQEDPEVQFNWYVDGVEVHNAKTKPREEQFNSTYRVVSVLTVLHQDWLNGKEYKCKVSNKGLPSSIEKTISKAKGQPREPQVYTLPPSQEEMTKNQVSLTCLVKGFYPSDIAVEWESNGQPENNYKTTPPVLDSDGSFFLYSRLTVDKSRWQEGNVFSCSVMHEALHNHYTQKSLSLSPGK
light: EIVLTQSPGTLSLSPGERATLSCRASQSVSSSYLAWYQQKPGQAPRLLIYGASSRATGIPDRFSGSGSGTDFTLTISRLEPEDFAVYYCQQGSPVTFGQGTKVEIKRTVAAPSVFIFPPSDEQLKSGTASVVCLLNNFYPREAKVQWKVDNALQSGNSQESVTEQDSKDSTYSLSSTLTLSKADYEKHKVYACEVTHQGLSSPVTKSFNRGEC
notes: also called IgG4 formatted MSM R735
In the case of B1, the IC50 in experiment [1] fell in the range of 2.5 to 5.3 nM. Besides, the “IC50 of inhibition of CCL19-induced Ca-flux in cells expressing human CCR7” value in experiment [2] is 128 nM.

B2: MSM-R707BI (fully human anti-human CCR7 antibody, IgG1) (antibody, V domains shown)
VH: EVQLLESGGGLVQPGGSLRLSCAASGFTFSNYAIHWVRQAPGKGLEWVSAITPRGGYTYYADSVKGRFTISRDNSKNTLYLQMNSLRAEDTAVYYCARGLTISYTPGFDYWGQGTLVTVSS
VL: not shown
notes: IgG1 format; HC CDR3 derivative of MSM-R707; also called MSM-R7707BI; R707B1
Take B2: the EC50 in experiment [3] came to 5.5 nM; in experiment [4], 6.7 nM.

B3: MSM R707 in IgG4 format (antibody)
heavy: EVQLLESGGGLVQPGGSLRLSCAASGFTFSNYAIHWVRQAPGKGLEWVSAITPRGGYTYYADSVKGRFTISRDNSKNTLYLQMNSLRAEDTAVYYCARGLTMMYTPGMDYWGQGTLVTVSSASTKGPSVFPLAPCSRSTSESTAALGCLVKDYFPEPVTVSWNSGALTSGVHTFPAVLQSSGLYSLSSVVTVPSSSLGTKTYTCNVDHKPSNTKVDKRVESKYGPPCPSCPAPEFLGGPSVFLFPPKPKDTLMISRTPEVTCVVVDVSQEDPEVQFNWYVDGVEVHNAKTKPREEQFNSTYRVVSVLTVLHQDWLNGKEYKCKVSNKGLPSSIEKTISKAKGQPREPQVYTLPPSQEEMTKNQVSLTCLVKGFYPSDIAVEWESNGQPENNYKTTPPVLDSDGSFFLYSRLTVDKSRWQEGNVFSCSVMHEALHNHYTQKSLSLSPGK
light: not shown
notes: also called IgG4 R707; IgG4 formatted MSM R707
B3 showed an IC50 in experiment [1] of 4.9 to 7.6 nM. Further, the “IC50 of inhibition of Ca-flux induced by 18 nM CCL19, Chem-1 CCR7h cells” value in experiment [2] was around 20 nM.

A word on the IC50: it is the concentration needed to halve the response being measured. Low readings indicate greater potency in that assay, high ones weaker potency in that assay. By EC50 is commonly meant the concentration giving half of the maximal effect.
